In paper PMC3597662:

Target: T1, Cbp2Hb wild type (Hyperthermus butylicus, UniProt A2BLH2 1-103)
T1 sequence: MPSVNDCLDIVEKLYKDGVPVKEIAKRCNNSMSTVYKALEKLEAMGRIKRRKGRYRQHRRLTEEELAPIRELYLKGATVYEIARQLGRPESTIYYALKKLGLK
Experiment: NMR

B1: CRISPR-1rHb 25 bp single repeat (dsDNA)
DNA 1: CTTGCAATTCTCTTTTGAGTTGTTC
DNA 2: GAACAACTCAAAAGAGAATTGCAAG
B1: binds.
